According to paper PMC3203615:

Biological target: isolated C-terminal domain (CTD, 213-288) of HIV-1 integrase (HIV-1)
Test: SEC

isolated C-terminal domain (CTD, 213-288) of HIV-1 integrase (domain or fragment)
stoichiometry N: 2
